Test results published in patent US20190241648A1 (STATEN BIOTECHNOLOGY B V, published 2019).
Ends that are not written are not given here.

Columns and labels:
Assay in all cases: peptide microarray
ApoC3 peptide … L67W = target: T1, ApoC3 peptide … L67W (human, not fully specified (bridges); also: cyclic constrained)
T1 peptide: DKFSEFWDWDPEV
How it was run: (§1)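 ApoC3 peptide microarrays incubated with antibody samples and then stained with goat anti-human IgG (Fc) DyLight680 plus anti-HA DyLight800 control antibody. Scanned at intensity 7/7 (red/green); a secondary-only prestain checked for background, and framing HA peptides served as quality control.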

ApoC3 peptide … E63A = ApoC3 peptide … E63A (human, cyclic constrained)
How it was run: as §1

ApoC3 peptide … K60F = target: T2, ApoC3 peptide … K60F (human, not fully specified (bridges); also: cyclic constrained)
T2 peptide: DFFSEFWDLDPEV
How it was run: as §1

ApoC3 peptide … V71R = ApoC3 peptide … V71R (human, cyclic constrained)
How it was run: as §1

ApoC3 peptide … D68R = target: T3, ApoC3 peptide … D68R (human, cyclic constrained)
T3 peptide: DKFSEFWDLRPEV
How it was run: as §1

ApoC3 peptide … D66S = target: T4, ApoC3 peptide … D66S (human, not fully specified (bridges); also: cyclic constrained)
T4 peptide: DKFSEFWSLDPEV
How it was run: as §1

ApoC3 peptide … S62T = ApoC3 peptide … S62T (human, cyclic constrained)
How it was run: as §1

ApoC3 peptide … D68T = ApoC3 peptide … D68T (human, cyclic constrained)
How it was run: as §1

ApoC3 peptide … F61Q = target: T5, ApoC3 peptide … F61Q (human, not fully specified (bridges); also: cyclic constrained)
T5 peptide: DKQSEFWDLDPEV
How it was run: as §1

ApoC3 peptide … D59I = target: T6, ApoC3 peptide … D59I (human, cyclic constrained)
T6 peptide: IKFSEFWDLDPEV
How it was run: as §1

ApoC3 peptide … V71C = ApoC3 peptide … V71C (human, cyclic constrained)
How it was run: as §1

ApoC3 peptide … K60Y = target: T7, ApoC3 peptide … K60Y (human, not fully specified (bridges); also: cyclic constrained)
T7 peptide: DYFSEFWDLDPEV
How it was run: as §1

ApoC3 peptide … P69G = target: T8, ApoC3 peptide … P69G (human, not fully specified (bridges); also: cyclic constrained)
T8 peptide: DKFSEFWDLDGEV
How it was run: as §1

ApoC3 peptide … P69L = target: T9, ApoC3 peptide … P69L (human, not fully specified (bridges); also: cyclic constrained)
T9 peptide: DKFSEFWDLDLEV
How it was run: as §1

ApoC3 peptide … F64K = target: T10, ApoC3 peptide … F64K (human, not fully specified (bridges); also: cyclic constrained)
T10 peptide: DKFSEKWDLDPEV
How it was run: as §1

ApoC3 peptide … L67R = target: T11, ApoC3 peptide … L67R (human, not fully specified (bridges); also: cyclic constrained)
T11 peptide: DKFSEFWDRDPEV
How it was run: as §1

ApoC3 peptide … D66F = target: T12, ApoC3 peptide … D66F (human, not fully specified (bridges); also: cyclic constrained)
T12 peptide: DKFSEFWFLDPEV
How it was run: as §1

ApoC3 peptide … D68G = target: T13, ApoC3 peptide … D68G (human, cyclic constrained)
T13 peptide: DKFSEFWDLGPEV
How it was run: as §1

ApoC3 peptide … W65N = target: T14, ApoC3 peptide … W65N (human, not fully specified (bridges); also: cyclic constrained, ring type and places not given here)
T14 peptide: DKFSEFNDLDPEV
How it was run: as §1

ApoC3 peptide … F64E = target: T15, ApoC3 peptide … F64E (human, not fully specified (bridges); also: cyclic constrained)
T15 peptide: DKFSEEWDLDPEV
How it was run: as §1

ApoC3 peptide … D68Y = ApoC3 peptide … D68Y (human, cyclic constrained)
How it was run: as §1

ApoC3 peptide … D59F = target: T16, ApoC3 peptide … D59F (human, not fully specified (bridges); also: cyclic constrained)
T16 peptide: FKFSEFWDLDPEV
How it was run: as §1

ApoC3 peptide … E63W = ApoC3 peptide … E63W (human, cyclic constrained)
How it was run: as §1

ApoC3 peptide … P69F = target: T17, ApoC3 peptide … P69F (human, not fully specified (bridges); also: cyclic constrained)
T17 peptide: DKFSEFWDLDFEV
How it was run: as §1

ApoC3 peptide … E70L = target: T18, ApoC3 peptide … E70L (human, not fully specified (bridges); also: cyclic constrained)
T18 peptide: DKFSEFWDLDPLV
How it was run: as §1

ApoC3 peptide … E63R = ApoC3 peptide … E63R (human, cyclic constrained)
How it was run: as §1

ApoC3 peptide … W65C = ApoC3 peptide … W65C (human, cyclic constrained)
How it was run: as §1

ApoC3 peptide … F61M = target: T19, ApoC3 peptide … F61M (human, not fully specified (bridges); also: cyclic constrained)
T19 peptide: DKMSEFWDLDPEV
How it was run: as §1

ApoC3 peptide … V71E = ApoC3 peptide … V71E (human, cyclic constrained)
How it was run: as §1

ApoC3 peptide … V71I = ApoC3 peptide … V71I (human, cyclic constrained)
How it was run: as §1

ApoC3 peptide … F64N = target: T20, ApoC3 peptide … F64N (human, not fully specified (bridges); also: cyclic constrained)
T20 peptide: DKFSENWDLDPEV
How it was run: as §1

ApoC3 peptide … D59R = target: T21, ApoC3 peptide … D59R (human, cyclic constrained)
T21 peptide: RKFSEFWDLDPEV
How it was run: as §1

ApoC3 peptide … V71L = ApoC3 peptide … V71L (human, cyclic constrained)
How it was run: as §1

ApoC3 peptide … D68N = target: T22, ApoC3 peptide … D68N (human, cyclic constrained)
T22 peptide: DKFSEFWDLNPEV
How it was run: as §1

ApoC3 peptide … V71W = ApoC3 peptide … V71W (human, cyclic constrained)
How it was run: as §1

ApoC3 peptide … L67P = target: T23, ApoC3 peptide … L67P (human, not fully specified (bridges); also: cyclic constrained)
T23 peptide: DKFSEFWDPDPEV
How it was run: as §1

ApoC3 peptide … F61H = target: T24, ApoC3 peptide … F61H (human, cyclic constrained)
T24 peptide: DKHSEFWDLDPEV
How it was run: as §1

ApoC3 peptide … E63I = ApoC3 peptide … E63I (human, cyclic constrained)
How it was run: as §1

% of binding to wild-type peptide (ApoC3 peptide … L67W): 1.26% | % of binding to wild-type peptide (ApoC3 peptide … E63A): 36.7% | % of binding to wild-type peptide (ApoC3 peptide … K60F): 83.7% | % of binding to wild-type peptide (ApoC3 peptide … V71R): 47.5% | % of binding to wild-type peptide (ApoC3 peptide … D68R): 0.66% | % of binding to wild-type peptide (ApoC3 peptide … D66S): 0% | % of binding to wild-type peptide (ApoC3 peptide … S62T): 139% | % of binding to wild-type peptide (ApoC3 peptide … D68T): 0.69% | % of binding to wild-type peptide (ApoC3 peptide … F61Q): 64.5% | % of binding to wild-type peptide (ApoC3 peptide … D59I): 103% | % of binding to wild-type peptide (ApoC3 peptide … V71C): 100% | % of binding to wild-type peptide (ApoC3 peptide … K60Y): 83.9% | % of binding to wild-type peptide (ApoC3 peptide … P69G): 16.3% | % of binding to wild-type peptide (ApoC3 peptide … P69L): 36.8% | % of binding to wild-type peptide (ApoC3 peptide … F64K): 107% | % of binding to wild-type peptide (ApoC3 peptide … L67R): 22.6% | % of binding to wild-type peptide (ApoC3 peptide … D66F): 7.27% | % of binding to wild-type peptide (ApoC3 peptide … D68G): 0% | % of binding to wild-type peptide (ApoC3 peptide … W65N): 56.5% | % of binding to wild-type peptide (ApoC3 peptide … F64E): 236% | % of binding to wild-type peptide (ApoC3 peptide … D68Y): 0% | % of binding to wild-type peptide (ApoC3 peptide … D59F): 61.5% | % of binding to wild-type peptide (ApoC3 peptide … E63W): 1.91% | % of binding to wild-type peptide (ApoC3 peptide … P69F): 97.7% | % of binding to wild-type peptide (ApoC3 peptide … E70L): 1.22% | % of binding to wild-type peptide (ApoC3 peptide … E63R): 5.31% | % of binding to wild-type peptide (ApoC3 peptide … W65C): 16% | % of binding to wild-type peptide (ApoC3 peptide … F61M): 56.5% | % of binding to wild-type peptide (ApoC3 peptide … V71E): 228% | % of binding to wild-type peptide (ApoC3 peptide … V71I): 54.3% | % of binding to wild-type peptide (ApoC3 peptide … F64N): 153% | % of binding to wild-type peptide (ApoC3 peptide … D59R): 70.2% | % of binding to wild-type peptide (ApoC3 peptide … V71L): 78% | % of binding to wild-type peptide (ApoC3 peptide … D68N): 0% | % of binding to wild-type peptide (ApoC3 peptide … V71W): 59.2% | % of binding to wild-type peptide (ApoC3 peptide … L67P): 0% | % of binding to wild-type peptide (ApoC3 peptide … F61H): 44.2% | % of binding to wild-type peptide (ApoC3 peptide … E63I): 8.76%
B1: anti-ApoC3 antibody 6A6 (antibody, V domains shown)
VH: EVQLVESGGGLVQPGGSLRLSCAASGFTFSSYAGRWVRQVPGKGLEWVSSINAGGGSTSYADSVKGRFTISRDNAKNTLYLQMNSLKPEDTAKYYCTQNSYRYWGQGTRVAVSS
VL: DVVLTQTPGSLSVVPGESASISCKASQSLIHTDGKTYLYWLLQKPGQRPQLLIYQVSSHESGVPDRFTGSGSGTDFTLKISGVKAEDAGVYYCAQATYNPRTFGQGTKLEIK
notes: it was detected with goat anti-human IgG (Fc); also called mAb 6A6; llama antibody 6A6
